Experimental data from the supplement of paper PMC9170038.

Test system: MS2 coat protein
Experiment: apparent KD of MS2 coat protein; designed switch direction (-1 OFF switch, 1 ON switch): -1; higher = weaker reporter binding
Outline: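 Designed RNA switches sharing common flanks were transcribed on Illumina chips by stalled E. coli RNA polymerase. They were titrated with SNAP-549-labelled MS2 coat protein, from 0.7 or 1.5 nM doubling to 3 µM, in Tris-HCl pH 7.5 buffer with KCl, MgCl2, BSA, DTT, tRNA and Tween-20. Titrations ran without input, with 200 uM small-molecule ligand, or with an oligonucleotide input. The apparent KD of each design is the median over its clusters, after curve-fitting of normalised cluster fluorescence.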

[1] = Eterna round: R95, input ligand: microRNA oligo, concentration not stated
[2] = input ligand: microRNA oligo, concentration not stated
[3] = Eterna round: R95, input ligand: FMN 200 uM
[4] = Eterna round: R95, input ligand: none

Row | Sequence | apparent KD of MS2 coat protein [1] | apparent KD of MS2 coat protein (input ligand: FMN 200 uM) | apparent KD of MS2 coat protein [2] | apparent KD of MS2 coat protein (input ligand: none) | apparent KD of MS2 coat protein [3] | apparent KD of MS2 coat protein [4]
1 | GUGUAGAUAGGAUAUGCUGGAAUCUAGCGAAGCUAGGUUCUACAUGAGGAUCACCCAUGUAGAAGGGUCUACAC [Dot plot directed A v12] (puzzle: Exclusion 2) | 28.5 nM |  |  |  |  | 
2 | GUGUAGUGAGGAUAUACAUGAGGAUCACCCAUGUGAAUAAGAUAGAAUAAGAUAAAGUGUAGAAGGUAUAGUGU [Excluse me!!! 17 - Jieux - Exclusion 3] (Eterna round: R96, puzzle: Exclusion 3) |  | 60.8 nM | 41.8 nM | 58.4 nM |  | 
3 | GUGUAGUGAGGAUAUACAUGAGGAUCACCCAUGUGAAUAAGAUAGAAUAAGAUAAAGUGUAGAAGGUAUAGUGU [Excluse me!!! 17 - Jieux - Exclusion 3] (puzzle: Exclusion 3) | 50 nM |  |  |  |  | 
4 | GUGUGCACGCUGCGAUCCUACAUGAGGAUCACCCAUGUGGUCUGGUGGCGUGGGUCACCGGACUUGGCUCGUCUUGG [salish99_S_TOV1_R5_077] (Eterna round: R97, puzzle: Sensor, turn-off variant 1) |  | 171 nM |  | 169 nM |  | 
5 | GUUAACGCAGGAUAUUAGUACAUGCACAUGAGGAUCACCCAUGUUUAGUGGGUCUAGGAAUAAGAAGGGCGAUGAA [EX5 #21] (Eterna round: R97, puzzle: Exclusion 5) |  | 210 nM |  | 227 nM |  | 
6 | GUUACACAUGAGGAUCACCCAUGUGAGGAUAUGGAUUCGUUGCAAGUAGGCGAUGGAUCCAGAAGGCGCGUGAG [JR_Ex1_Sub080] (Eterna round: R97, puzzle: Exclusion 1) |  | 58.7 nM |  | 50.5 nM |  | 
7 | GUUAUACAUGAGGAUCACCCAUGUCAGGAUAUUAUCUAUCUUUGGAAGCAUUGAUCGCUAAGAAGGGACUAGUA [Bubbles2] (Eterna round: R97, puzzle: Exclusion 1) |  | 28 nM |  | 33 nM |  | 
8 | GUUAUGUCAGGAUAUGCUAAUGAUGAGUGAUCAGACAUGAUGUAGAAGGGACAUGAGGAUCACCCAUGUACUAA [EX4 #9] (Eterna round: R97, puzzle: Exclusion 4) |  | 30.6 nM |  | 29 nM |  | 
9 | GUUAUUUCAGGAUAUACAUGAGGAUCACCCAUGUAAGCAAGGUGCCUGCAUCCCGACUGUAGAAGGGAAAUGAG [Eternabot (L2) Solution 61] (Eterna round: R97, puzzle: Exclusion 3) |  | 29.9 nM |  | 28.5 nM |  | 
10 | GUUGGUUGAGAGGAUAUUGUACGCGAUGAGUGUCGAGAAGGUUCAACAUGAGGAUCACCCAUGUGGCUGAGUAA [Eternabot (L1) Solution 40] (Eterna round: R97, puzzle: Exclusion 6) |  | 442 nM |  | 32.1 nM |  | 
11 | GUUGUUUAUGUAGGAUAUGCCUGGCGUGCCUUUGCAGAAGGACAUGAGGAUCACCCAUGUAUUGCGGUCUGCGUUCAGAUCGCA [salish99_ExNG1_r4_039] (Eterna round: R96, puzzle: Exclusion NG 1) |  | 59.5 nM | 26 nM | 39 nM |  | 
12 | GUUUCACAUGAGGAUCACCCAUGUGAGGAUAUACAUUUGUUAACCGUAGUUAAUAGAUGUAGAAGGCGCGUGAU [JRxlusion 4 - Jieux - Exclusion 1] (Eterna round: R97, puzzle: Exclusion 1) |  | 50.6 nM |  | 62.6 nM |  | 
13 | GUUUCACAUGAGGAUCACCCAUGUGAGGAUAUGGACUUUUUGGCAAUAGUCGUUGGGUUCAGAAGGCGCGUGAU [JR_Exc1_Sub006] (Eterna round: R97, puzzle: Exclusion 1) |  | 45.2 nM |  | 49.4 nM |  | 
14 | GUUUCGAGACGGAGAUCCGACAUGAGGAUCACCCAUGUCUCACAAGCUUUUUGCUCGUCUUAUACUCCUCUGUUCUC [Elimod 48 - Jieux - Sensor, turn-off variant 1] (Eterna round: R97, puzzle: Sensor, turn-off variant 1) |  | 15.6 nM |  | 17.7 nM |  | 
15 | GUUUGCGCAGGAUAUACAUGAGGAUCACCCAUGUGAGAGAAAGAAGUGAGGAAGAAAAGUAGAAGGGCGUGACG [Mat - Exclusion 3 - Mod of Salish D72] (puzzle: Exclusion 3) | 58.4 nM |  |  |  | 301 nM | 39 nM
16 | UAAAAGUCAGGAUAUGCGAGAGAUUGAAGUAUGGAAAGGUAGCAGAAGGGACAUGAGGAUCACCCAUGUGAGGA [JR_Exclu4_Sub095] (puzzle: Exclusion 4) | 31.7 nM |  |  |  | 51.1 nM | 29.5 nM
17 | UAAAAGUGAGGAUAUCCAAUAUAUGACAUGAGGAUCACCCAUGUUUCCACUCGUACCUCCGGAGAAGGCACAAAAU [Ex5 #60] (Eterna round: R97, puzzle: Exclusion 5) |  | 25.2 nM |  | 28.6 nM |  | 
18 | UAAAAUAAACAUGAGGAUCACCCAUGUGAAUGGACUCCUCGGGAGGAUAUUCUGCUUAAAGGUCAGGAGAAGGCCCAUUGCAAU [Isinza] (Eterna round: R96, puzzle: Exclusion NG 3) |  | 545 nM | 242 nM | 197 nM |  | 
19 | UAAAGUAUAUAGGAUAUCUAGCUGGAAACAGCUAGAGAAGGAUGUACAUGAGGAUCACCCAUGUAGAUCUCAAA [Ex6/15-A2] (Eterna round: R97, puzzle: Exclusion 6) |  | 19 nM |  | 16.2 nM |  | 
20 | UAAAUGUGAGGAUAUUCGAUUUACUCGGAGACGAGUAGAUCGGAGAAGGCACAUGAGGAUCACCCAUGUUCCUU [Mat - Exclusion 4 - JL Mod - D10] (Eterna round: R97, puzzle: Exclusion 4) |  | 234 nM |  | 23.2 nM |  | 
21 | UAACAAGCUUUAAGAUCCUACAUGAGGAUCACCCAUGUGCUCGUCUUAUAACGUACUGUGACGAAAGUCACGGUACG [JL TOV1 3.17] (Eterna round: R97, puzzle: Sensor, turn-off variant 1) |  | 206 nM |  | 160 nM |  | 
22 | UAACUGCUCGUCUUGUUAAACAUGAGGAUCACCCAUGUCAGCCUGUAAGGGUACGGUAGAUAGGCCCGAUUGCAUGA [Eternabot (L1) Solution 11] (Eterna round: R97, puzzle: Sensor, turn-off variant 1) |  | 26.9 nM |  | 31.2 nM |  | 
23 | UAAGUUUACCGAGGAUAUGGUCAAUAAUUAUGACCAGAAGGCGGACUCAACAUGAGGAUCACCCAUGUAUAAAGGGUAAUUGGU [JR_ExcNG1_Sub047] (Eterna round: R96, puzzle: Exclusion NG 1) |  | 154 nM | 110 nM | 90.8 nM |  | 
24 | UAAUAAAGUGUGAGGAUAUGCUGGUCGAUAGAUCAGCAGAAGGCACAUGAGGAUCACCCAUGUAAUAUAUAAAU [Mat - Exclusion 4 - JL Mod - D58] (puzzle: Brourd's mod of Exclusion 4) | 40.9 nM |  |  |  | 258 nM | 45 nM
25 | UAAUACUCAGGAUAUAUGAUGUGAAACAUGAGGAUCACCCAUGUAAUAUUAUGGAUGUAAAUAGAAGGGAGAUUAU [Mat - Exclusion 5 - JL mod - D20] (puzzle: Exclusion 5) | 55.4 nM |  |  |  | 53.3 nM | 63 nM
26 | UAAUAGUAUGUUAGGAUAUGCUGGUCGAAAGAUCAGCAGAAGGAACAUGAGGAUCACCCAUGUAGACUAUUUUA [Mod of JL 20 - Jieux - Brourd's mod of Exclusion 4] (Eterna round: R97, puzzle: Brourd's mod of Exclusion 4) |  | 31.6 nM |  | 17.8 nM |  | 
27 | UAAUGCAAGUAAAGAUCUUACAUGAGGAUCACCCAUGUGCUCGUCUUAUAAAGUACUAUCACGAAAGUGAUAGUACA [Mat - Sensor v3 - turn-off var 1 - Eli Mod - D89] (puzzle: Sensor v3, turn-off variant 1) | 119 nM |  |  |  | 18.2 nM | 18 nM
28 | UAAUGUAUAUAGGAUAUCUAGCUGGAAACAGCUAGAGAAGGAUGUACAUGAGGAUCACCCAUGUAAAUCGUGAA [Ex6/13-B1] (Eterna round: R97, puzzle: Exclusion 6) |  | 60.4 nM |  | 24.9 nM |  | 
29 | UACAAGCUUUUAAGAUCCCACAUGAGGAUCACCCAUGUGCUCGUCUUAUAACGUACUGUGACGAAAGUCACGGUACG [JL TOV1 3.24] (Eterna round: R97, puzzle: Sensor, turn-off variant 1) |  | 15.8 nM |  | 24.3 nM |  | 
30 | UACACCACAUGAGGAUCAAACAUGAGGAUCACCCAUGUAUAGCAAGCUUUUUGCUCGUCUUAUAAAUAUGUGGUGUA [Electric Eye 6 - Jieux - Sensor, turn-off variant 1] (Eterna round: R97, puzzle: Sensor, turn-off variant 1) |  | 14.9 nM |  | 14.9 nM |  | 
